Measured values published in patent publication US20050037448A1.

Key:
[1] = biological target: human proinsulin (human) (UniProt P01308); assay: competitive RIA, PEP001-coated tubes, 125I-Tyr-C-peptide; serum E1 overloaded with 0.67 pmol/ml proinsulin; no AC1D4
[2] = biological target: des-31,32-proinsulin (UniProt P01308); assay: competitive RIA, PEP001-coated tubes, 125I-Tyr-C-peptide; serum E2 overloaded with 0.67 pmol/ml des-31,32-proinsulin; no AC1D4
[3] = biological target: des-64,65-proinsulin (UniProt P01308); assay: competitive RIA, PEP001-coated tubes, 125I-Tyr-C-peptide; serum E2 overloaded with 0.16 pmol/ml des-64,65-proinsulin; no AC1D4
[4] = biological target: des-31,32-proinsulin (UniProt P01308); assay: competitive RIA, PEP001-coated tubes, 125I-Tyr-C-peptide; serum E1 overloaded with 0.16 pmol/ml des-31,32-proinsulin; competitor AC1D4 20 µg/ml
[5] = biological target: des-31,32-proinsulin (UniProt P01308); assay: competitive RIA, PEP001-coated tubes, 125I-Tyr-C-peptide; serum E2 overloaded with 3.33 pmol/ml des-31,32-proinsulin; competitor AC1D4 20 µg/ml
[6] = biological target: des-64,65-proinsulin (UniProt P01308); assay: competitive RIA, PEP001-coated tubes, 125I-Tyr-C-peptide; serum E1 overloaded with 0.16 pmol/ml des-64,65-proinsulin; competitor AC1D4 20 µg/ml

- Increase after overload (%) [1]: 56%
- Increase after overload (%) [2]: 8%
- Increase after overload (%) [3]: 0%
- Increase after overload (%) [4]: 5%
- Increase after overload (%) [5]: 6%
- Increase after overload (%) [6]: 10%
Substance: PEP001 anti-C-peptide monoclonal antibody
